Reference: the supplement of paper PMC5998384

Assays:
HeLa Kyoto [1] = assay: solubility in G1/S (NP-40 vs SDS abundance) (log2 ratio); higher = more soluble; conditions: cell cycle stage: G1/S
HeLa Kyoto [2] = assay: melting temperature (median over replicates), in situ; higher = more thermally stable
HeLa Kyoto [3] = assay: solubility change mitosis vs G1/S (difference of NP-40 vs SDS log2 ratios) (log2 ratio difference); higher = more soluble in mitosis
HeLa Kyoto [4] = assay: thermal stability score vs G1/S (z-score of summed log2 fold changes over temperatures); higher = more thermally stable than in G1/S
[5] = cell cycle stage: early G1 (4.5 h after nocodazole release)
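Throughout, for melting temperature (median over replicates), in situ: HeLa Kyoto cells synchronized by double thymidine or nocodazole block, proteins quantified by TMT10plex mass spectrometry, three independent biological replicates.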
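Throughout, for solubility change mitosis vs G1/S (difference of NP-40 vs SDS log2 ratios): synchronized HeLa Kyoto cells (double thymidine block for G1/S, nocodazole release for mitosis), protein amounts in NP-40 versus SDS lysates quantified by mass spectrometry, three biological replicates.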
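Throughout, for solubility in G1/S (NP-40 vs SDS abundance): HeLa Kyoto cells arrested at G1/S by double thymidine block, proteins quantified by TMT10plex mass spectrometry in mild NP-40 versus SDS extracts, three biological replicates.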
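Throughout, for thermal stability score vs G1/S (z-score of summed log2 fold changes over temperatures): synchronized HeLa Kyoto cells, proteins quantified by TMT10plex mass spectrometry, three biological replicates, mitosis taken 0.5 h after nocodazole release, G1/S directly after double thymidine block.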

Substance	solubility in G1/S (log2) (HeLa Kyoto [1])	melting temperature (HeLa Kyoto [2]; cell cycle stage: G1/S)	melting temperature (HeLa Kyoto [2]; cell cycle stage: mitosis)	solubility change mitosis (log2) (HeLa Kyoto [3])	thermal stability score (HeLa Kyoto [4]; [5])	thermal stability score (HeLa Kyoto [4]; cell cycle stage: mitosis)
MLSRPKPGESEVDLLHFQSQFLAAGAAPAVQLVKKGNRGGGDANSDRPPLQDHRDVVMLDNLPDLPPALVPSPPKRARPSPGHCLPEDEDPEERLRRHDQHITAVLTKIIERDTSSVAVNLPVPSGVAFPAVFLRSRDTQGKSATSGKRSIFAQEIAARRIAEAKGPSVGEVVPNVGPPEGAVTCETPTPRNQGCQLPGSSHSFQGPNLVTGKGLRDQEAEQEAQTIHEENIARLQAMAPEEILQEQQRLLAQLDPSLVAFLRSHSHTQEQTGETASEEQRPGGPSANVTKEEPLMSAFASEPRKRDKLEPEAPALALPVTPQKEWLHMDTVELEKLHWTQDLPPVRRQQTQERMQARFSLQGELLAPDVDLPTHLGLHHHGEEAERAGYSLQELFHLTRSQVSQQRALALHVLAQVISRAQAGEFGDRLAGSVLSLLLDAGFLFLLRFSLDDRVDGVIATAIRALRALLVAPGDEELLDSTFSWYHGALTFPLMPSQEDKEDEDEDEECPAGKAKRKSPEEESRPPPDLARHDVIKGLLATSLLPRLRYVLEVTYPGPAVVLDILAVLIRLARHSLESATRVLECPRLIETIVREFLPTSWSPVGAGPTPSLYKVPCATAMKLLRVLASAGRNIAARLLSSFDLRSRLCRIIAEAPQELALPPEEAEMLSTEALRLWAVAASYGQGGYLYRELYPVLMRALQVVPRELSTHPPQPLSMQRIASLLTLLTQLTLAAGSTPAETISDSAEASLSATPSLVTWTQVSGLQPLVEPCLRQTLKLLSRPEMWRAVGPVPVACLLFLGAYYQAWSQQPSSCPEDWLQDMQRLSEELLLPLLSQPTLGSLWDSLRHCSLLCNPLSCVPALEAPPSLVSLGCSGGCPRLSLAGSASPFPFLTALLSLLNTLAQIHKGLCGQLAAILAAPGLQNYFLQCVAPGAAPHLTPFSAWALRHEYHLQYLALALAQKAAALQPLPATHAALYHGMALALLSRLLPGSEYLTHELLLSCVFRLEFLPERTSGGPEAADFSDQLSLGSSRVPRCGQGTLLAQACQDLPSIRNCYLTHCSPARASLLASQALHRGELQRVPTLLLPMPTEPLLPTDWPFLPLIRLYHRASDTPSGLSPTDTMGTAMRVLQWVLVLESWRPQALWAVPPAARLARLMCVFLVDSELFRESPVQHLVAALLAQLCQPQVLPNLNLDCRLPGLTSFPDLYANFLDHFEAVSFGDHLFGALVLLPLQRRFSVTLRLALFGEHVGALRALSLPLTQLPVSLECYTVPPEDNLALLQLYFRTLVTGALRPRWCPVLYAVAVAHVNSFIFSQDPQSSDEVKAARRSMLQKTWLLADEGLRQHLLHYKLPNSTLPEGFELYSQLPPLRQHYLQRLTSTVLQNGVSET [RPAP1]	-0.1	52.9 °C	51.7 °C	-0.0998	0.47	0.88
MATELEYESVLCVKPDVSVYRIPPRASNRGYRASDWKLDQPDWTGRLRITSKGKTAYIKLEDKVSGELFAQAPVEQYPGIAVETVTDSSRYFVIRIQDGTGRSAFIGIGFTDRGDAFDFNVSLQDHFKWVKQESEISKESQEMDARPKLDLGFKEGQTIKLCIGNITNKKGGASKPRTARGGGLSLLPPPPGGKVTIPPPSSSVAISNHVTPPPIPKSNHGGSDADILLDLDSPAPVTTPAPTPVSVSNDLWGDFSTASSSVPNQAPQPSNWVQF [NECAP1]	0.521	51.5 °C	52.4 °C	-0.274	0.202	0.108
MSGAEEAGGGGPAAGPAGSVPAGVGVGVGAGPGAAAGQAAAAALGEAAGPGLPDEAGLAGARQLQLQEAAGDPDAPPKKRLRAAEAAEAAAAAAAAGSGKLEERLYSVLCCTVCLDLPKASVYQCTNGHLMCAGCFIHLLADARLKEEQATCPNCRCEISKSLCCRNLAVEKAVSELPSECGFCLRQFPRSLLERHQKEECQDRVTQCKYKRIGCPWHGPFHELTVHEAACAHPTKTGSELMEILDGMDQSHRKEMQLYNSIFSLLSFEKIGYTEVQFRPYRTDDFITRLYYETPRFTVLNQTWVLKARVNDSERNPNLSCKRTLSFQLLLKSKVTAPLECSFLLLKGPYDDVRISPVIYHFVFTNESNETDYVPLPIIDSVECNKLLAAKNINLRLFLFQIQK [CYHR1]	0.166	54 °C	55 °C	-0.0838	-1.75	-2.18
MGTPASGRKRTPVKDRFSAEDEALSNIAREAEARLAAKRAARAEARDIRMRELERQQKEYSLHSFDRKWGQIQKWLEDSERARYSHRSSHHRPYLGVEDALSIRSVGSHRYDMFKDRSSRLSSLNHSYSHSHGMKKRSSDSHKDLLSGLYFDQRNYSSLRHSKPTSAYYTRQSSSLYSDPLATYKSDRASPTANSGLLRSASLASLYNGGLYNPYGPRTPSECSYYSSRISSARSSPGFTNDDTASIVSSDRASRGRRESVVSAADYFSRSNRRGSVVSEVDDISIPDLSSLDEKSDKQYAENYTRPSSRNSASATTPLSGNSSRRGSGDTSSLIDPDTSLSELRDIYDLKDQIQDVEGRYMQGLKELKESLSEVEEKYKKAMVSNAQLDNEKNNLIYQVDTLKDVIEEQEEQMAEFYRENEEKSKELERQKHMCSVLQHKMEELKEGLRQRDELIEEKQRMQQKIDTMTKEVFDLQETLLWKDKKIGALEKQKEYIACLRNERDMLREELADLQETVKTGEKHGLVIIPDGTPNGDVSHEPVAGAITVVSQEAAQVLESAGEGPLDVRLRKLAGEKEELLSQIRKLKLQLEEERQKCSRNDGTVGDLAGLQNGSDLQFIEMQRDANRQISEYKFKLSKAEQDITTLEQSISRLEGQVLRYKTAAENAEKVEDELKAEKRKLQRELRTALDKIEEMEMTNSHLAKRLEKMKANRTALLAQQ [LRRFIP2]	0.672	53.3 °C	53.7 °C	0.251	-3.39	-4.14
MYO10	-0.269	48.3 °C	49.4 °C	-0.176	0.691	0.867
MPKVKSGAIGRRRGRQEQRRELKSAGGLMFNTGIGQHILKNPLIINSIIDKAALRPTDVVLEVGPGTGNMTVKLLEKAKKVVACELDPRLVAELHKRVQGTPVASKLQVLVGDVLKTDLPFFDTCVANLPYQISSPFVFKLLLHRPFFRCAILMFQREFALRLVAKPGDKLYCRLSINTQLLARVDHLMKVGKNNFRPPPKVESSVVRIEPKNPPPPINFQEWDGLVRITFVRKNKTLSAAFKSSAVQQLLEKNYRIHCSVHNIIIPEDFSIADKIQQILTSTGFSDKRARSMDIDDFIRLLHGFNAEGIHFS [DIMT1]	-0.509	54.2 °C	53.2 °C	0.276	0.644	1.74
MSGVRAVRISIESACEKQVHEVGLDGTETYLPPLSMSQNLARLAQRIDFSQGSGSEEEEAAGTEGDAQEWPGAGSSADQDDEEGVVKFQPSLWPWDSVRNNLRSALTEMCVLYDVLSIVRDKKFMTLDPVSQDALPPKQNPQTLQLISKKKSLAGAAQILLKGAERLTKSVTENQENKLQRDFNSELLRLRQHWKLRKVGDKILGDLSYRSAGSLFPHHGTFEVIKNTDLDLDKKIPEDYCPLDVQIPSDLEGSAYIKVSIQKQAPDIGDLGTVNLFKRPLPKSKPGSPHWQTKLEAAQNVLLCKEIFAQLSREAVQIKSQVPHIVVKNQIISQPFPSLQLSISLCHSSNDKKSQKFATEKQCPEDHLYVLEHNLHLLIREFHKQTLSSIMMPHPASAPFGHKRMRLSGPQAFDKNEINSLQSSEGLLEKIIKQAKHIFLRSRAAATIDSLASRIEDPQIQAHWSNINDVYESSVKVLITSQGYEQICKSIQLQLNIGVEQIRVVHRDGRVITLSYQEQELQDFLLSQMSQHQVHAVQQLAKVMGWQVLSFSNHVGLGPIESIGNASAITVASPSGDYAISVRNGPESGSKIMVQFPRNQCKDLPKSDVLQDNKWSHLRGPFKEVQWNKMEGRNFVYKMELLMSALSPCLL [MED17]	0.0389	50.4 °C	49.7 °C	-0.0898	0.0203	0.644
MGTRDDEYDYLFKVVLIGDSGVGKSNLLSRFTRNEFNLESKSTIGVEFATRSIQVDGKTIKAQIWDTAGQERYRAITSAYYRGAVGALLVYDIAKHLTYENVERWLKELRDHADSNIVIMLVGNKSDLRHLRAVPTDEARAFAEKNNLSFIETSALDSTNVEEAFKNILTEIYRIVSQKQIADRAAHDESPGNNVVDISVPPTTDGQKPNKLQCCQNL [RAB11B]	0.136	57.1 °C	57.5 °C	-0.0727	0.344	-0.699
MARVLKAAAANAVGLFSRLQAPIPTVRASSTSQPLDQVTGSVWNLGRLNHVAIAVPDLEKAAAFYKNILGAQVSEAVPLPEHGVSVVFVNLGNTKMELLHPLGRDSPIAGFLQKNKAGGMHHICIEVDNINAAVMDLKKKKIRSLSEEVKIGAHGKPVIFLHPKDCGGVLVELEQA [MCEE]	0.471	57.8 °C	56.1 °C	0.128	-0.379	-2.18
